Experimental data taken from article PMC2580753.
Where two headings read alike, the source gives them in different places.

Key:
Assay in all cases: SPR
[1] = molecular target: mIgA1κ (monomeric myeloma IgA1, kappa light chain) (UniProt P01876); details: pH 7.4, 25 °C, 150 mM NaCl, TBS-P: 20 mM Tris
[2] = molecular target: Fcα (IgA1-Fc core fragment, CH2-CH3) (UniProt P01876); details: pH 7.4, 25 °C, 150 mM NaCl, TBS-P: 20 mM Tris
[3] = molecular target: mIgA1κ (monomeric myeloma IgA1, kappa light chain) (UniProt P01876); details: pH 7.4, 25 °C, 150 mM NaCl, TBS-P: 20 mM Tris; remark: listed apart in the source
[4] = molecular target: Deglycosylated mIgA1κ (N-glycans removed enzymatically) (human)
[5] = molecular target: Monomeric myeloma patient-derived IgA1κ (mIgA1κ) (human)
[6] = molecular target: Deglycosylated mIgA1κ (N-glycans removed enzymatically) (human); remark: listed apart in the source
[7] = molecular target: Monomeric myeloma patient-derived IgA1κ (mIgA1κ) (human); remark: listed apart in the source
[8] = molecular target: Monomeric myeloma patient-derived IgA1λ (mIgA1λ) (human)
[9] = molecular target: Monomeric myeloma patient-derived IgA1κ (mIgA1κ) (human); remark: listed apart in the source
[10] = molecular target: Monomeric IgA1 (Mce), a naturally undergalactosylated myeloma IgA1 protein (human)

Soluble recombinant FcαRI ectodomain, sequence (P24071 22-227): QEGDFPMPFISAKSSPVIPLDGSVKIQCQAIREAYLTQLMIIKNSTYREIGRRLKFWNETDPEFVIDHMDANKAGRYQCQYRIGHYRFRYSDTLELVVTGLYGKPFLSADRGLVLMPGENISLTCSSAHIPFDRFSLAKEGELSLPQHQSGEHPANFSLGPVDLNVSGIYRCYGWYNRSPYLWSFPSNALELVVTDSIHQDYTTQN
mIgA1κ (monomeric myeloma IgA1, kappa light chain), sequence (P01876 whole entry, the tested form may be a part): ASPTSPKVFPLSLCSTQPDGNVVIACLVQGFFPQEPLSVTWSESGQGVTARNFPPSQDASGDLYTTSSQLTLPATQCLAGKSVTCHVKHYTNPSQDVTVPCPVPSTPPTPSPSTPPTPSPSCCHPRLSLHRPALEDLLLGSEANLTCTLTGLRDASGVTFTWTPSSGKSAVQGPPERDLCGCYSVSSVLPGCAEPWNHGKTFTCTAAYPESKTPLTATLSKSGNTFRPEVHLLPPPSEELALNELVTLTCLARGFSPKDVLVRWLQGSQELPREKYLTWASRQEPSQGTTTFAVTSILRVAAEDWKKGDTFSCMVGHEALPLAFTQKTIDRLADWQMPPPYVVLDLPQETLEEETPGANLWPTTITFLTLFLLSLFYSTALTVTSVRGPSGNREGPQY
Fcα (IgA1-Fc core fragment, CH2-CH3), sequence (P01876 whole entry, the tested form may be a part): as above

Substance FcαRI (CD89) soluble ectodomain has a k1off [1] of 0.0267 s⁻¹, a k1on [1] of 317000 M/s and a k2off [1] of 0.096 s⁻¹. The k2on [1] was 315000 M/s, the k1off [2] was 0.0278 s⁻¹ and the k1on [2] was 461000 M/s. For the same substance, the k2off [2] was 0.054 s⁻¹, the k2on [2] was 447000 M/s and the k1off [3] was 0.0266 s⁻¹. For the same substance, the k1on [3] was 355000 M/s, the k2off [3] was 0.074 s⁻¹ and the k2on [3] was 304000 M/s.

“Soluble recombinant FcαRI ectodomain (from UniProt P24071 22-227) (receptor)” was tested, and the KD1 (first binding event) [4] was 78.4 nM, the KD2 (second binding event) [4] was 320 nM and the k1off (first binding event) [4] was 0.0258 s⁻¹. For the same substance, the k1on (first binding event) [4] was 329000 M/s, the k2on (second binding event) [4] was 187000 M/s and the k1off (first binding event) [5] was 0.0267 s⁻¹. For the same substance, the k1on (first binding event) [5] was 317000 M/s, the k2on (second binding event) [5] was 315000 M/s and the KD1 (two-site equilibrium model) [6] was 42.6 nM. It also gave a KD2 (two-site equilibrium model) [6] of 582 nM, a KD1 (two-site equilibrium model) [7] of 45 nM and a KD2 (two-site equilibrium model) [7] of 571 nM. For the same substance, the KD1 (two-site equilibrium model) [8] was 47.6 nM, the KD2 (second binding event) [8] was 195 nM and the KD2 (two-site equilibrium model) [8] was 371 nM. The k1off (first binding event) [8] was 0.0254 s⁻¹, the k1on (first binding event) [8] was 312000 M/s and the k2off (second binding event) [8] was 0.102 s⁻¹. For the same substance, the k2on (second binding event) [8] was 525000 M/s, the KD1 (first binding event) [9] was 74.9 nM and the KD1 (two-site equilibrium model) [9] was 40.2 nM. The KD1 at pH 5.5 (first binding event) [9] was 837 nM, the KD2 (second binding event) [9] was 244 nM and the KD2 (two-site equilibrium model) [9] was 452 nM. It also gave a KD2 at pH 5.5 (second binding event) [9] of 2.53 μM, a k1off (first binding event) [9] of 0.0266 s⁻¹ and a k1on (first binding event) [9] of 355000 M/s. The k2on (second binding event) [9] was 304000 M/s, the KD1 (first binding event) [10] was 72.3 nM and the KD1 (two-site equilibrium model) [10] was 40.8 nM. The KD2 (second binding event) [10] was 222 nM and the KD2 (two-site equilibrium model) [10] was 403 nM.
